Experimental data from patent US20160152995A1, “METHODS AND COMPOSITIONS TO IMPROVE THE SPREAD OF CHEMICAL SIGNALS IN PLANTS” (PIONEER HI-BRED INTERNATIONAL, INC., priority 2013, published 2016).
Changes are numbered by the printed parent chain.

B1: L6-1B03 (protein)
chain: MGSRLDKSKVINSALELLNEVGIEGLTTRKLAQKLGVEQPTLYWHVKNKRALLDALAIEMMDRHATHICPLEGESWQDFLRNNAKSMRCALLSHRDGAKVCLGTRWTEQQYEAAENMLAFLCQQGFSLENALYAVSAVRVFTLGCVLFDQESQVAKEERETPTTASMPPLLRQAWELKDHQGAEPAFLFGLELIICGLEKQLKCESGS
modifications: Sulfonylurea responsive repressor
B2: L6-5F05 (protein)
chain: B1 chain with M117Q, S152L
modifications: Sulfonylurea responsive repressor
B3: L6-6F07 (protein)
chain: B1 chain with I68L, N83T, A113S, V135M
modifications: Sulfonylurea responsive repressor
B4: L6-2C09 (protein)
chain: B1 chain with A65Q, I68Y, N83T, Q110L, A113T, M117Q, V135M, S152L
modifications: Sulfonylurea responsive repressor
B5: L6-4D10: library L6 clone, parent of library L8 hits (protein)
chain: B1 chain with A65Q, I68Y, Q109K, A113S
modifications: Sulfonylurea responsive repressor
notes: library L6 clone, parent of library L8 hits
B6: L6-5G06 (protein)
chain: B1 chain with A65Q, I68Y, A113T, M117Q, S152L, A174G
modifications: Sulfonylurea responsive repressor
B7: L6-5H06 (protein)
chain: B1 chain with A65Q, Q109K, A113T, S152L, L171V
modifications: Sulfonylurea responsive repressor
B8: L6-3H02: SuR polypeptide, SEQ ID NO:94 (protein)
chain: B1 chain with I68Y, N83T, Q110H, A113S, L171V, D179V
modifications: Sulfonylurea responsive repressor
B9: L6-5H12 (protein)
chain: B1 chain with I68Y, Q109K, A113T, M117Q, V135M, S152L, L171V
modifications: Sulfonylurea responsive repressor
B10: L6-2D07 (protein)
chain: B1 chain with A65Q, I68F, N83T, A113T, V135M, L171V
modifications: Sulfonylurea responsive repressor
B11: L8-3F09 (protein)
chain: MARLDKSKVINSALELLNEVGIEGLTTRKLAQKLGVEQPTLYWHVKNKRALLDALAIEMMDRHQTHYSPLEGESWQDFLRNNAKSLRCALLSHRDGAKVCLGTRWTEQQYESAENMLAFLTQQGFSLENALYALTAVRVFTLGWVLFDQESQVAKEERETPTTDSMPPLLRQAWELKDHQGAEPAFLFGLELIIAGLEKQLKRESGS
modifications: Sulfonylurea responsive repressor
B12: L8-3F02 (protein)
chain: B11 chain with L86C, C88R, T121C, L134V, T135S, V139I, W144A
modifications: Sulfonylurea responsive repressor
B13: L8-1B12 (protein)
chain: B11 chain with L86W, T135E, R203A
modifications: Sulfonylurea responsive repressor
B14: L8-1A04 (protein)
chain: B11 chain with S68L, L86C, C88N, S112T, T135E, V137A, W144A, A195S
modifications: Sulfonylurea responsive repressor
B15: L8-2F12 (protein)
chain: B11 chain with L86C, C88N, T135Q, A195R, R203S
modifications: Sulfonylurea responsive repressor
B16: L8-3D03 (protein)
chain: B11 chain with S68L, L86C, C88N, T135D, W144A, A195R, R203S
modifications: Sulfonylurea responsive repressor
B17: L8-3B08 (protein)
chain: B11 chain with L134V, T135D, V137A, A195R
modifications: Sulfonylurea responsive repressor

Test system: E. coli assay strain Km3
Type: cell-based
Conditions: M9 assay plates, 0.2 ppm chlorsulfuron, 48 hr at 30° C., ImageJ colony color intensity
Procedure: Library L6 was assembled, rescued, ligated into pVER7314, transformed into E. coli KM3 and plated out onto LB carbenicillin/kanamycin, and carbenicillin only control media as before. Library plates were then picked into 42 384-well microtiter plates (˜16,000 clones) containing 60 μl LB carbenicillin (Cb) broth per well. After overnight growth at 37° C. the cultures were stamped onto M9 assay plates containing no inducer, 0.2 ppm, and 2.0 ppm chlorsulfuron as test inducer. Following incubation at 30° C. for ˜48 hrs, putative hits responding to chlorsulfuron treatment as determined by increased blue colony color were re-arrayed into six 96-well microtiter plates and used to stamp a fresh set of M9 assay plates to confirm the above results. For a more detailed analysis of the relative induction by chlorsulfuron, digital photographs were taken of the plates after various time points of incubation at 30° C. and colony color intensity measured using the digital image analysis freeware program ImageJ (Rasband, US National Institutes of Health, Bethesda, Md., USA, rsb.info.nih.gov/ij/, 1997-2007). […] From this analysis sequence-activity relationships were derived. […] Briefly, C at position 100, and Q at positions 108 and 109 strongly correlated with activation, while R at position 138, L at position 170, and A or G at position 173 were highly preferred in clones with the lowest background activity. […] This information will aid in the design of further libraries to improve responsiveness to chlorsulfuron.
Library L8 construction and screening. Fourth round shuffling incorporated the best diversity from Rd3 shuffling (BB1860) as well as computational diversity (Table 14). As diversity was very high the library oligo mix was spiked into the parental hit variant oligo mix (5, 10, and 25% mixes) to titer down the number of residue changes per clone. In addition, to varying residues for Cs activity, seven residues (C68, C86, C88, C121, C144, C195, and C203) were varied with TetR family phylogenetic substitutions in an attempt to reduce the number of cysteine residues in the repressor. The PCR assembled libraries were cloned Sac1/Asc1 into pVER7334. This plasmid encodes PBAD promoter controlled expression of a plant optimized TetR DNA binding domain fused to the wt ligand binding domain of TetR(B) encoded by native Tn10 sequence on a Sac1 to Asc1 fragment. Approximately 15,000 clones were screened for blue colony color on the M9 Xgal assay plates +/−200 ppb Chlorsulfuron (Cs). Clones were ranked by ratio of color with inducer after 24 hrs incubation over colony color without inducer for 48 hrs of incubation. The sequence trend in the overall larger population of hits (first re-array) was that L55, R104, W105 and L170 were maintained while the C144A substitution was highly preferred. Sequence trends within the hit population were then noted with respect to repression, induction and fold induction (which corrects for leakiness).
Mutagenesis reactions were transformed into library strain Km3 and 96 colonies tested for substitution by DNA sequence analysis. Substitutions representing each possible residue at each position were then re-arrayed in triplicate onto M9 X-gal assay plates with 0, 20 and 200 ppb Chlorsulfuron. Plates were incubated at 37° C. for 24 and 48 hrs prior to imaging. Residue substitutions were then ranked by activation (emphasis on 20 ppb Cs) and repression characteristics (emphasis on 48 hr time point). The mutation with the greatest impact on activity was substitution of residue N82 to phenylalanine or tyrosine. […] All other preferred substitutions shown in Table 18 either improved repression or improved sensitivity to inducer without compromising repressor function. Certain residues were indispensible to function such as R104, W105, and W174 as substitutions were not allowed. Other residue positions such as R138 and K177 were also flagged as critical since functional substitutions were extremely limited. […]

Going from B1 to B2, the “0.2 ppm 48 hr (colony color intensity)” value falls from 30.0 to 22.0.

Compared with B3, B4 is higher in “0.2 ppm 48 hr (colony color intensity)” value: 11.6 for the first, 13.6 for the second.

Going from B5 to B6, the “0.2 ppm 48 hr (colony color intensity)” value rises from 18.4 to 34.4.

Compared with B7, B8 is higher in “0.2 ppm 48 hr (colony color intensity)” value: 13.7 for the first, 15.8 for the second.

Compared with B9, B10 is lower in “0.2 ppm 48 hr (colony color intensity)” value: 23.7 for the first, 20.0 for the second.

Same assay, conditions: M9 assay plates, no inducer, 84 hr at 30° C., ImageJ colony color intensity

Going from B1 to B2, the “Control 84 hr (colony color intensity, background)” value falls from 6.6 to 5.4.

Going from B3 to B4, the “Control 84 hr (colony color intensity, background)” value rises from 5.1 to 5.2.

Compared with B5, B6 is higher in “Control 84 hr (colony color intensity, background)” value: 5.0 for the first, 7.0 for the second.

First: B7
Second: B8
The “Control 84 hr (colony color intensity, background)” value of the first is lower: 5.1 for the first, 5.6 for the second.

Compared with B9, B10 is higher in “Control 84 hr (colony color intensity, background)” value: 5.7 for the first, 5.8 for the second.

Same assay, conditions: library L8 hits; M9 Xgal colony assay; 200 ppb Chlorsulfuron; 24 hrs

First: B11
Second: B12
The “IND = induction with 200 ppb Cs at 24 hrs (blue colony color intensity thru ImageJ analysis)” value (from here on “IND = induction with 200 ppb Cs”) of the first is higher: 5.6 for the first, 3.4 for the second.

Compared with B13, B14 is lower in “IND = induction with 200 ppb Cs” value: 12.5 for the first, 12.2 for the second.

First: B15
Second: B16
The “IND = induction with 200 ppb Cs” value of the first is lower: 2.7 for the first, 5.9 for the second.

Compared with B17, B5 is lower in “IND = induction with 200 ppb Cs” value: 13.0 for the first, 0.2 for the second.

Same assay, conditions: library L8 hits; M9 Xgal colony assay; ratio IND (200 ppb Cs, 24 hrs) / REP (48 hrs)

Going from B11 to B12, the “F. IND = fold induction: induction with 200 ppb Cs at 24 hrs/repression at 48 hrs” value falls from 9.7 to 3.5.

Going from B13 to B14, the “F. IND = fold induction: induction with 200 ppb Cs at 24 hrs/repression at 48 hrs” value rises from 5.1 to 6.2.

Compared with B15, B16 is higher in “F. IND = fold induction: induction with 200 ppb Cs at 24 hrs/repression at 48 hrs” value: 3.6 for the first, 4.9 for the second.

Going from B17 to B5, the “F. IND = fold induction: induction with 200 ppb Cs at 24 hrs/repression at 48 hrs” value falls from 6.1 to 0.4.

Same assay, conditions: library L8 hits; M9 Xgal colony assay; without inducer; 48 hrs

Going from B11 to B12, the “REP = repression measured without inducer after 48 hrs (blue colony color intensity thru ImageJ analysis)” value rises from 0.6 to 1.0.

Going from B13 to B14, the “REP = repression measured without inducer after 48 hrs (blue colony color intensity thru ImageJ analysis)” value falls from 2.4 to 2.0.

Going from B15 to B16, the “REP = repression measured without inducer after 48 hrs (blue colony color intensity thru ImageJ analysis)” value rises from 0.7 to 1.2.

Going from B17 to B5, the “REP = repression measured without inducer after 48 hrs (blue colony color intensity thru ImageJ analysis)” value falls from 2.1 to 0.6.

Same assay, conditions: ratio of colony color with 0.2 ppm chlorsulfuron at 48 hr over no-inducer control at 84 hr

Going from B1 to B2, the “0.2 ppm 48 hr/Control 84 hr” value falls from 4.6 to 4.1.

First: B3
Second: B4
The “0.2 ppm 48 hr/Control 84 hr” value of the first is lower: 2.3 for the first, 2.6 for the second.

Going from B5 to B6, the “0.2 ppm 48 hr/Control 84 hr” value rises from 3.7 to 4.9.

First: B7
Second: B8
The “0.2 ppm 48 hr/Control 84 hr” value of the first is lower: 2.7 for the first, 2.8 for the second.

Compared with B9, B10 is lower in “0.2 ppm 48 hr/Control 84 hr” value: 4.2 for the first, 3.4 for the second.
